The record followed here is the supplement of paper PMC12764529.

± gives the half width of the 95% confidence interval.

A short description of data set [1]: folding stability dG unfold from trypsin proteolysis; higher = more stable. An outline of the steps:
(§1)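 Bayesian fitting of sequencing counts gave K50 for each design. Unfolding free energy followed by setting this against a sequence-predicted unfolded-state K50 and a shared folded-state K50, either per protease or with trypsin and chymotrypsin combined. The designs, under 80 residues and lacking cysteine, were digested in a PA-tagged cDNA display format at 11 threefold-diluted protease concentrations and without protease, and only those with AlphaFold2 dimer inter-PAE above 15 were kept.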

Data set [2] in a line: folding stability dG unfold from chymotrypsin proteolysis; higher = more stable. Put shortly:
as §1

A short description of data set [3]: folding stability dG unfold (combined trypsin and chymotrypsin); higher = more stable. Put shortly:
as §1

Take “SAGGNDDDQKPKMVRVKIKYDNPDGEKYKIDEIWVMPPPFIMIRMPGNGQEIFIPPDQIKEIEIEPVSAGGS [r8_410_TrROS]”: the “folding stability dG unfold” value is -0.149 ± 0.28 kcal/mol in data set [1], 1.09 ± 0.081 kcal/mol in data set [2] and 0.826 ± 0.3 kcal/mol in data set [3].

“SAGGNDDNWRVIEFTFSPGNIKPEQIRSLLENAGADRITDVEVQRTPNSYTVTFYFPNGKPVEITIPSAGGS [r8_86_TrROS]”: the “folding stability dG unfold” value in data set [1] turned out to be 1.65 ± 0.038 kcal/mol; in data set [2] it was 2.37 ± 0.1 kcal/mol; in data set [3], 2.13 ± 0.13 kcal/mol.

For the sequence “SAGGNFEIWRHPENGILWIEFRIPAGEPLEIPLKFKAPNGKPIKITKFHIWPMNDWWYIKFIIKIPPSAGGS [r16_499_TrROS]”, the “folding stability dG unfold” value in data set [1] stood at 3.15 ± 0.12 kcal/mol; in data set [2] it was 2.84 ± 0.06 kcal/mol; in data set [3], 2.99 ± 0.25 kcal/mol.

Regarding “SAGGNIEVDNDMIEIPFPGGFTIMIRLPPDKGKVTVHIERDPNNPMFREFAKEIADQLPGLPVEVHPWSAGG [r13_34_TrROS]”, the “folding stability dG unfold” value in data set [1] is 0.996 ± 0.11 kcal/mol; in data set [2] it was 0.414 ± 0.14 kcal/mol; in data set [3] it was 0.752 ± 0.08 kcal/mol.

Turning to “SAGGNIKIEDIEIMKPMKDPDGNPDKPMYMVSIRIEHEYKYPDGPMKHKHEIMIMMPPNDPDEALDELSAGG [r13_149_TrROS]”, the “folding stability dG unfold” value in data set [1] was 0.897 ± 0.081 kcal/mol; in data set [2], 0.758 ± 0.041 kcal/mol; in data set [3] it was 0.877 ± 0.11 kcal/mol.

Consider “SAGGNIRIWFPGREIPIGGTVEDIKANIRKWLGRPIPEELIEQIDKGKTVSEIVDWLRKRGFPIRIWSAGGS [r16_601_TrROS]”, for which the “folding stability dG unfold” value in data set [1] amounted to 1.78 ± 0.031 kcal/mol; in data set [2], 1.94 ± 0.16 kcal/mol; in data set [3], 1.87 ± 0.11 kcal/mol.

With “SAGGNKEHKVTLEIYIMMWPDPDNGQPYPMPLEIEAPYKNNDPEAAEADIKELLKEIPIPPWMKDMISAGGS [r16_40_TrROS]”, the “folding stability dG unfold” value in data set [1] is 1.19 ± 0.12 kcal/mol; in data set [2], 0.692 ± 0.15 kcal/mol; in data set [3], 0.988 ± 0.39 kcal/mol.

In the case of “SAGGNMWEQIRMIVRELAKEGHPWITFDKIHKELGRPITPEWREWLRDAGFIEHDPNGSMTFRIPPGASAGG [r13_188_TrROS]”, the results for the “folding stability dG unfold” value in data set [1], in data set [2] and in data set [3] were 1.36 ± 0.032 kcal/mol, 0.89 ± 0.1 kcal/mol and 1.17 ± 0.056 kcal/mol, respectively.

“SAGGNPASATVTINEDILVNGSPEEARALVEARAKAEGITITDVTITPVPGDPSVYRVSATFSKTLASAGGS [r8_479_JUSTAS]”: the “folding stability dG unfold” value came to 1.91 ± 0.038 kcal/mol in data set [1], 1.9 ± 0.1 kcal/mol in data set [2] and 1.87 ± 0.15 kcal/mol in data set [3].

Regarding “SAGGNRIMFFFDTPEQAREIAKELAKNFPGYKLDVEVHTQEMKVKDPDNGEEQRYPMVMVEIEIKPPSAGGS [r16_828_TrROS]”, the “folding stability dG unfold” value came out at 1.6 ± 0.049 kcal/mol in data set [1], 1.44 ± 0.13 kcal/mol in data set [2] and 1.52 ± 0.17 kcal/mol in data set [3].

As to “SAGGNWKIRNPKNGRTIEIDNFNPGNGMFRVKVWNPNGNKEEHPIPGSLEEILEFLQKKGWPVEIERSAGGS [r16_748_TrROS]”, the “folding stability dG unfold” value in data set [1] is 0.27 ± 0.21 kcal/mol; in data set [2], 0.888 ± 0.2 kcal/mol; in data set [3], 0.626 ± 0.23 kcal/mol.

Turning to “SAGGNWPMRIKIEDPGEEKTIPIPITKVEPNPPPGKLMIFWPDGWVLTFDPKNWRIKKIEPMPDPDEMSAGG [r13_636_TrROS]”, the “folding stability dG unfold” value in data set [1] came out at 0.942 ± 0.084 kcal/mol; in data set [2], 0.822 ± 0.13 kcal/mol; in data set [3], 1.05 ± 0.37 kcal/mol.

Consider “SAGGNWRIRVKIEGPDGKTVNHWFWIPNLEDLLSFIQSQPGPKIKDVEIEPPPKDKQYYIPFTMTIPPSAGG [r13_796_TrROS]”, for which the “folding stability dG unfold” value came out at 1.72 ± 0.031 kcal/mol in data set [1], 1.87 ± 0.11 kcal/mol in data set [2] and 1.8 ± 0.11 kcal/mol in data set [3].

“SAGGPDDMKIIEETTIRFPENGMQFNIRIYKLPDNDVFIEAEMIMPNGKPVGRMEARVPNGKPIEIPFSAGG [r13_573_TrROS]”: the results for the “folding stability dG unfold” value in data set [1], in data set [2] and in data set [3] were 0.854 ± 0.04 kcal/mol, 1.64 ± 0.12 kcal/mol and 1.36 ± 0.087 kcal/mol, respectively.

As to “SAGGPDLVPVARAVYRIDVPPDRTAEEVRREIEERLRPLGVRRVVVPVFYDPERGYLLVVAEVYRSPEESAG [r5_924_TrMRF]”, the “folding stability dG unfold” value in data set [1] was found to be 1.82 ± 0.036 kcal/mol; in data set [2] it was 2.17 ± 0.1 kcal/mol; in data set [3] it was 2.06 ± 0.081 kcal/mol.

In the case of “SAGGPEIRLRVRRPVRLTRRELLPDGTWRTLPARPGYEELEITFTGPEETARRLREELERLGYEVEEVSAGG [r13_452_TrMRF]”, the “folding stability dG unfold” value amounted to 1.76 ± 0.056 kcal/mol in data set [1], 2.84 ± 0.066 kcal/mol in data set [2] and 2.44 ± 0.12 kcal/mol in data set [3].

In the case of “SAGGPEIVKLDFTLDPNGNLVFTFELKDGTKYEIKINPENPTIEIKEIEKIEPKPIPEDDPELLKEKSAGGS [r16_482_TrMRF]”, the “folding stability dG unfold” value in data set [1] was 1.54 ± 0.17 kcal/mol; in data set [2], 3.24 ± 0.059 kcal/mol; in data set [3], 2.49 ± 0.78 kcal/mol.

On to “SAGGPENARPVTFTVTLPDGDVVPITVTEHPDGTVTVTVTVLRFDGAEPVPATATITVPAEVVRRLFSAGGS [r16_470_TrMRF]”, for which the entries for the “folding stability dG unfold” value in data set [1], in data set [2] and in data set [3] were 2.15 ± 0.035 kcal/mol, 2.636 ± 0.023 kcal/mol and 2.48 ± 0.034 kcal/mol, respectively.

Consider “SAGGPEVKILSKSYNPEKNTVTYNLEVYYGGKKYGALAEIHYDPKTGKYTITVYYPDKPDYKETLTFNSAGG [r13_615_TrMRF]”, for which the “folding stability dG unfold” value came out at 1.91 ± 0.077 kcal/mol in data set [1], 3.03 ± 0.079 kcal/mol in data set [2] and 2.58 ± 0.21 kcal/mol in data set [3].

Regarding “SAGGPEVVLTVTVKVPPEMTPEEVAQRLADELRKKYPDLKVEVVSVEYDEETKEVTVTIRVTYAPPPSAGGS [r8_26_TrROS_Hall]”, the figures for the “folding stability dG unfold” value in data set [1], in data set [2] and in data set [3] were 4.97 ± 0.64 kcal/mol, 4.05 ± 0.16 kcal/mol and 4.45 ± 0.14 kcal/mol, respectively.

As to “SAGGPFRIEDISIQRDPDNGKLTIIIPFPAPPGQEIKIKVRDPGNGKEKKFDMKVEPLPNGYLTMTISAGGS [r8_195_TrROS]”, the “folding stability dG unfold” value in data set [1] came out at 1.82 ± 0.14 kcal/mol; in data set [2] it was 2.17 ± 0.11 kcal/mol; in data set [3], 1.91 ± 0.21 kcal/mol.

For the sequence “SAGGPFYLRIKIVDEDGKEITYMFPAPADEAEEEIEELLPGWPLKIDEVERFPGEPGYIMVTIKIPPNSAGG [r13_832_TrROS]”, the “folding stability dG unfold” value turned out to be 1.63 ± 0.051 kcal/mol in data set [1], 2.07 ± 0.17 kcal/mol in data set [2] and 1.97 ± 0.12 kcal/mol in data set [3].

As for “SAGGPGEEYKHPNGMAMRRDPENGKVEMRKVPPIPIEIKIEIDPALGWIRLSITIPNGKKIEFTFPFSAGGS [r16_453_TrROS]”, the “folding stability dG unfold” value was 2.36 ± 0.052 kcal/mol in data set [1], 4.11 ± 0.32 kcal/mol in data set [2] and 3.32 ± 0.2 kcal/mol in data set [3].

As to “SAGGPGMKMEPIAQIEFPGGRKITIHRMEMPNGNKMVNVNIMNPNGKTKTVMVPMGDIDEAIDALKLSAGGS [r16_588_TrROS]”, the figures for the “folding stability dG unfold” value in data set [1], in data set [2] and in data set [3] were 1.65 ± 0.036 kcal/mol, 1.04 ± 0.07 kcal/mol and 1.29 ± 0.12 kcal/mol, respectively.

For “SAGGPGTREVEITIPADELREEHPNLTDEELVEEVMELARGIAQEQGYPIKKVDITHDKDGWVTIKLSAGGS [r8_368_TrROS]”, the figures for the “folding stability dG unfold” value in data set [1], in data set [2] and in data set [3] were 0.383 ± 0.091 kcal/mol, 0.152 ± 0.11 kcal/mol and 0.322 ± 0.16 kcal/mol, respectively.

For the sequence “SAGGPGWQRIAKWEIPLPNGKDITIEPYYVNPNNNHYMYEIEIGDGKEIPFWVPPGDSPEDALDAILKSAGG [r13_470_TrROS]”, the “folding stability dG unfold” value in data set [1] was -0.194 ± 0.2 kcal/mol; in data set [2] it was -0.126 ± 0.32 kcal/mol; in data set [3], -0.118 ± 0.16 kcal/mol.

As for “SAGGPGWRTINIPVWFKPGDSLDEIEEKARELVDPIADRNGLDIEVNIEVERDPDGYYRFNVQITVPSAGGS [r16_279_TrROS]”, the “folding stability dG unfold” value was determined as 1.27 ± 0.097 kcal/mol in data set [1], 2.34 ± 0.071 kcal/mol in data set [2] and 1.96 ± 0.13 kcal/mol in data set [3].
